Where a chain is given by its changes, count along the chain named.
B1: D2 (IgG) (antibody, V domains shown)
VH: EVQLVESGGGLVQPGGSLRLSCAASGFTFSSYAMHWVRQAPGKGLEWVSAISSSSGTIYYADSVKGRFTISRDNSKNTLYLQMNSLRAEDTAVYYCAKDFGAVFDYWGQGTLVTVSS
VL: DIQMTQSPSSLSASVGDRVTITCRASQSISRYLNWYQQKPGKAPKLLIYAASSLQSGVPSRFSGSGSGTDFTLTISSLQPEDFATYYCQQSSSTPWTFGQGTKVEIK
B2: H1 (IgG) (antibody, V domains shown)
VH: B1 VH with H35S, S52R, S55G, I58T, D99S, F100Q, G101S, A102T, F104A
VL: DIQMTQSPSSLSASVGDRVTITCRASQSISNWLNWYQQKPGKAPKLLIYATSRLQSGVPSRFSGSGSGTDFTLTISSLQPEDFATYYCQQSYSFPLTFGQGTKVEIK
B3: A7 (IgG) (antibody, V domains shown)
VH: B1 VH with S31D, H35S, A50G, S55G, D99A, F100I, A102S, V103W, F104A, Y106I
VL: B2 VL with S28D, W32Y, T51A, R53S, L96Y
B4: 1E12 (IgG) (antibody, V domains shown)
VH: EVQLVESGGGLVQPGGSLRLSCAASGFTFSSYAMHWVRQAPGKGLEWVSAISSSGGTKYYADSVKGRFTISRDNSKNTLYLQMNSLRAEDTAVYYCAKGLQGGAGAFDIWGQGTLVTVSS
VL: B2 VL with W32Y, R53T, Q55H, L96W
B5: H7 (IgG) (antibody, V domains shown)
VH: EVQLVESGGGLVQPGGSLRLSCAASGFTFSSYGMHWVRQAPGKGLEWVSGISSSGGSKYYADSVKGRFTISRDNSKNTLYLQMNSLRAEDTAVYYCAKHGHQQMDFWGQGTLVTVSS
VL: B2 VL with N31S, T51A, S91T, L96W
B6: C5 (IgG) (antibody, V domains shown)
VH: EVQLVESGGGLVQPGGSLRLSCAASGFTFSSYAMSWVRQAPGKGLEWVSSISSSSGTTHYADSVKGRFTISRDNSKNTLYLQMNSLRAEDTAVYYCAKGGAFDYWGQGTLVTVSS
VL: B2 VL with S28D, N31R, T51A, R53T
B7: F4 (IgG) (antibody, V domains shown)
VH: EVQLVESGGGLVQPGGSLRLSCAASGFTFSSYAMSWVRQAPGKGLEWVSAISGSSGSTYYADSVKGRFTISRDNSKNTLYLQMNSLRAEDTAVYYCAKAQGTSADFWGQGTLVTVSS
VL: B2 VL with N31R, T51A, F94T, L96W
B8: A5 (IgG) (antibody, V domains shown)
VH: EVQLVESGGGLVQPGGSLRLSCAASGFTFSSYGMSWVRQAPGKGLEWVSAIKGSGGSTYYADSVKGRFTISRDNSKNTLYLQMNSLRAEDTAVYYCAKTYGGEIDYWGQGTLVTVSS
VL: B2 VL with N31R, R53T, L96W
B9: F2 (IgG) (antibody, V domains shown)
VH: EVQLVESGGGLAQPGGSLRLSCAASGFTFSSYAMHWVRQAPGKGLEWVSSIKSSGGSKNYADSVKGRFTISRDNSKNTLYLQMNSLRAEDTAVYYCAKGYGASFDFWGQGTLVTVSS
VL: B2 VL with S28D, N31S, T51A, S91A, L96W
B10: E7 (IgG) (antibody, V domains shown)
VH: EVQLVESGGGLVQPGGSLRLSCAASGFTFSSYAMHWVRQAPGKGLEWVSAISSSGGSIYYADSVKGRFTISRDNSKNTLYLQMNSLRAEDTAVYYCAKQGLSFDIWGQGTLVTVSS
VL: B2 VL with L96Y

The binders below were run against human chitinase-3-like protein 1 (hCHI3L1) (human, UniProt P36222 22-383) (assay: ELISA).
human chitinase-3-like protein 1 (hCHI3L1), sequence (P36222 22-383): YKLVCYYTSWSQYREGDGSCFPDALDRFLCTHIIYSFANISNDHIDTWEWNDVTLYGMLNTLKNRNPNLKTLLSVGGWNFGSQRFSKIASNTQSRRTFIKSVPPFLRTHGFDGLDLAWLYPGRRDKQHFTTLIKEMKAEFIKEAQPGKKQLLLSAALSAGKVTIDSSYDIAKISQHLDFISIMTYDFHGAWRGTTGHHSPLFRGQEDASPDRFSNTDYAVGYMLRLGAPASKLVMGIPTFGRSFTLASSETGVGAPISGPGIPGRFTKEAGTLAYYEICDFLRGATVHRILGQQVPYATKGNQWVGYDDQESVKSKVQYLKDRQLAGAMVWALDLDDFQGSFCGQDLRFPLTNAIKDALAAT

Row | Binder | EC50 [nM]
1 | B1 | 0.577
2 | B2 | 0.496
3 | B3 | 2.05
4 | B4 | 0.139
5 | B5 | 1.38
6 | B6 | 0.093
7 | B7 | 0.111
8 | B8 | 0.972
9 | B9 | 1.75
10 | B10 | 0.348
